T1: cynomolgus ENTPD2, full length, on cells (cynomolgus macaque, UniProt Q9Y5L3 1-495 (human entry))
T1 chain: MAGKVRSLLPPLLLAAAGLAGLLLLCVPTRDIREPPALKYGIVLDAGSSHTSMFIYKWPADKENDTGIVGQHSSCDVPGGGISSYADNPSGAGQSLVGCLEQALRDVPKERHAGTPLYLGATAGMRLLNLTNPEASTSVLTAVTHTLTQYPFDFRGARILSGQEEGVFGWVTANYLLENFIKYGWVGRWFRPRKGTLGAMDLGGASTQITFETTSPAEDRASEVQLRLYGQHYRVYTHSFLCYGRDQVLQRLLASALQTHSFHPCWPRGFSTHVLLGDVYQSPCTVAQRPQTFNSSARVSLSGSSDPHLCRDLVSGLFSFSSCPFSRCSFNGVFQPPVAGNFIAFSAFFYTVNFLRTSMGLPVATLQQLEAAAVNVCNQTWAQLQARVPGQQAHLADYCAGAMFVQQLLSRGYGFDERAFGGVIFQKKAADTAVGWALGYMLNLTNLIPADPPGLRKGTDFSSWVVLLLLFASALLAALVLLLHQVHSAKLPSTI

T2: human ENTPD2, full length, on cells (human, UniProt Q9Y5L3 1-495)
T2 sequence: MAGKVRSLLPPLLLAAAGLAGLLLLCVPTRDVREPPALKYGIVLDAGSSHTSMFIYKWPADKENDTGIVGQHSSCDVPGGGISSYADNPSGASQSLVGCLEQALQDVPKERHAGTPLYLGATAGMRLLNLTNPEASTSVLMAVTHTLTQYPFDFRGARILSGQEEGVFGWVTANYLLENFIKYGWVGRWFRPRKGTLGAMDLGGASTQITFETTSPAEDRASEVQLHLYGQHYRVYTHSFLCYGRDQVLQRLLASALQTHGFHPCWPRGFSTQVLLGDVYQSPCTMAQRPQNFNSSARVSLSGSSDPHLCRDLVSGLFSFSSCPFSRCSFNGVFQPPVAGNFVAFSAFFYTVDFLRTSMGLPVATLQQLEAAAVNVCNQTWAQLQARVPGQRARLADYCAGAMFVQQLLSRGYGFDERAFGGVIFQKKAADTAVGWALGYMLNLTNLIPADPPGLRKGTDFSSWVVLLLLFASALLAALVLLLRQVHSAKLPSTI


How the values were obtained:
Assay in all cases: cell-based or functional assay
[1] = target: T1, cynomolgus ENTPD2, full length, on cells
[2] = target: T2, human ENTPD2, full length, on cells
[3] = target: recombinant human ENTPD2 extracellular domain (residues 29-462) with C-terminal Avi-His6 tag (human, UniProt Q9Y5L3 29-462)

Row | Binder | Cyno ENTPD2 NIH/3T3 Assay % inhibition [1] [%] | Cyno ENTPD2 NIH/3T3 Assay IC50 [1] [nM] | Human ENTPD2 NIH/3T3 Assay % inhibition [2] [%] | Human ENTPD2 NIH/3T3 Assay IC50 [2] [nM] | RKO Assay % inhibition [2] [%] | RKO Assay IC50 [2] [nM] | ENTPD2 Biochemical Assay at 1 uM ATP IC50 [3] [nM]
1 | ANTI-HUMAN ENTPD2 MAB18 (antibody, human IgG1, kappa, V domains shown) VH: DIQLQESGPGLVKPSQSLSLTCSVTGYSITSGYYWNWIRQFPGNKLEWMGYISYDGDNNYNPSLKNRISITRDTSKNQFFLKLSSVTTEDTATYYCAGGYYRYGLGSYSGSYYYVMDYWGQGTSVTVSS VL: DTVLTQSPASLAVSLGQRATISCKASQSVDYDGNSYMNWYQQKPGQPPKLLIYAASNLESGIPARFSGSGSGTDFTLNIHPVEEEDAATYYCQQSNEDPPTFGGGTKLEIKR | 68 | 20 | 88 | 0.4 |  |  | 
2 | ANTI-HUMAN ENTPD2 MAB4 (antibody, human IgG1, kappa, V domains shown) VH: QIQLQESGPGLVKPSQTLSLTCTVSGYSITSGYYWNWIRQHPGKGLEWIGYISYDADNNYNPSLKNRVTISRDTSKNQFSLKLSSVTAADTAVYYCAGGYYRYGLGSYRGSYYYVMDYWGQGTTVTVSS VL: ETVLTQSPATLSVSPGERATISCKASQSVDYEGHSYMNWYQQKPGQAPRLLIYAASNLESGIPARFSGSGSGTDFTLTISSVEPEDAATYYCQQSNEDPPTFGGGTKLEIKR | 75 | 2.2 | 87 | 0.2 | 74 | 0.2 | 
3 | ANTI-HUMAN ENTPD2 MAB6 (antibody, human IgG1, kappa, V domains shown) VH: QVQLQESGPGLVKPSQTLSLTCTVSGYSITSGYYWNWIRQHPGKGLEWMGYISYDADNNYNPSLKNRITISRDTSKNQFSLKLSSVTAADTAVYYCAGGYYRYGLGSYSGSYYYVMDYWGQGTTVTVSS VL: DTQMTQSPSSLSVSVGDRATITCKASQSVDYEGHSYMNWYQQKPGKAPKLLIYAASNLESGVPSRFSGSGSGTDFTLTISSVQPEDFATYYCQQSNEDPPTFGGGTKLEIKR | 73 | 3.3 | 95 | 0.3 | 90 | 0.2 | 
4 | ANTI-HUMAN ENTPD2 MAB5 (antibody, human IgG1, kappa, V domains shown) VH: QIQLQESGPGLVKPSQTLSLTCTVSGYSITSGYYWNWIRQHPGKGLEWIGYISYDADNNYNPSLKNRVTISRDTSKNQFSLKLSSVTAADTAVYYCAGGYYRYGLGSYRGSYYYVMDYWGQGTTVTVSS VL: ETVLTQSPATLSVSPGERATISCKASQSVDYDGNSYMNWYQQKPGQAPRLLIYAASNLESGIPARFSGSGSGTDFTLTISSVEPEDAATYYCQQSNEDPPTFGGGTKLEIKR | 80 | 1.5 | 95 | 0.3 | 80 | 0.2 | 
5 | ANTI-HUMAN ENTPD2 MAB12 (antibody, human IgG1, kappa, V domains shown) VH: EVLLVESGGGLVQPGGSLRLSCAASGFTFNSCSMNWVRQAPGKGLEWVSYISSSSSTIYYADSVKGRFTISRDNAKNSLYLQMNSLKDEDTAVYYCARDQGNWNYDDYYNGLDVWGQGTTVTVSS VL: not shown |  |  | 68 | 26.6 |  |  | 
6 | ANTI-HUMAN ENTPD2 MAB9 (antibody, human IgG1, lambda, V domains shown) VH: QVQLVQSGAEVKKPGSSVKVSCKASGGTFDSYAVSWVRQAPGQGLEWMGRIVPWLGHTQYAQKFQGRVTITADESTSTAYMELSSLRSEDTAVYYCARESPGYRYSFDVWDQGTLVTVSS VL: SYELTQPLSVSVALGQTARITCSGDAIGEKYVYWYQQKPGQAPVLVIYDDNNRPSGIPERFSGSNSGNTATLTISRAQAGDEADYYCASYDLQQARWVFGGGTKLTVLG | 71 | 0.3 | 92 | 0.3 | 70 | 0.1 | 
7 | ANTI-HUMAN ENTPD2 MAB10 (antibody, human IgG1, lambda, V domains shown) VH: QVQLVQSGAEVKKPGSSVKVSCKASGGTFDSYAVSWVRQAPGQGLEWMGRIVPWLGFTRYAQKFQGRVTITADESTSTAYMELSSLRSEDTAVYYCARESPGYRYSFDVWDQGTLVTVSS VL: SYELTQPLSVSVALGQTARITCSGDAIGEKYVYWYQQKPGQAPVLVIYDDNNRPSGIPERFSGSNSGNTATLTISRAQAGDEADYYCASYDLQQARWVFGGGTKLTVLG | 86 | 0.5 | 88 | 0.4 | 77 | 0.2 | 
8 | ANTI-HUMAN ENTPD2 MAB2 (antibody, human IgG1, kappa) heavy: not shown light: EIVLTQSPATLSASPGERITLSCSASSSVSYIHWYQQKPGQAPRLLIYSTSNLASGIPARFSGSGSGTFYTLTISSVEPEDAAVYYCHQWSSYPWTFGGGTKLEIKRTVAAPSVFIFPPSDEQLKSGTASVVCLLNNFYPREAKVQWKVDNALQSGNSQESVTEQDSKDSTYSLSSTLTLSKADYEKHKVYACEVTHQGLSSPVTKSFNRGEC | 84 | 2.7 | 98 | 1.4 | 86 | 0.8 | 
9 | ANTI-HUMAN ENTPD2 MAB3 (antibody, human IgG1, kappa, V domains shown) VH: QVQLVQSGAEVVKPGASVKISCKASGYTFTDYNMDWVKQAPGQRLEWIGDINPKYDISTYNQQFKGKATITVDTSASTAYMELSSLRSEDTAVYYCARRGFFLYYGINYYYFDVWGQGTLVTVSS VL: EIVLTQSPATLSASPGERITLSCSASSSVSYIHWYQQKPGQAPRLLIYSTSNLASGIPARFSGSGSGTFYTLTISSVEPEDAAVYYCHQWSSYPWTFGGGTKLEIKR | 84 | 5.8 | 91 | 1.8 | 95 | 1.6 | 
10 | ANTI-HUMAN ENTPD2 MAB7 (antibody, human IgG1, kappa) heavy: not shown light: EIVLTQSPATLSASPGEEITLSCSASSSVSYIHWYQQKPGQAPRLLIYSTSNLASGIPARFSGSGSGTFYTLTISSVEPEDAAVYYCHQWSSYPWTFGGGTKLEIKRTVAAPSVFIFPPSDEQLKSGTASVVCLLNNFYPREAKVQWKVDNALQSGNSQESVTEQDSKDSTYSLSSTLTLSKADYEKHKVYACEVTHQGLSSPVTKSFNRGEC | 82 | 2.7 | 95 | 0.8 | 92 | 0.6 | 
11 | ANTI-HUMAN ENTPD2 MAB19 (antibody, human IgG1, kappa, V domains shown) VH: EVQLQQFGAELVKPGTSVKISCKASGYTFTDYNMDWVKQSHGKSLEWIGDINPNYDITTYNQRFKGKATLTVDKSSSTAYMELRSLTSEDTAVYYCARRGFFPYYGNSYYYFDVWGAGTTVTVSS VL: QIVLTQSPTIMSASLGEEITLTCSASSSVSYMHWYQQKSGTSPKLLIYSTSNLASGVPSRFSGSGSGTFYSLTISSVEAEDAADYYCHQWSNYPWTFGGGTKLEIKR |  |  |  |  |  |  | 4.09
12 | ANTI-HUMAN ENTPD2 MAB20 (antibody, human IgG1, kappa, V domains shown) VH: EVQLQQFGAELVKPGASVKISCKASGYTFTDYNMDWVKQSHGKSLEWIGDINPNYDITSYNQKFKGKATLTVDKSSSTAYMELRSLTSEDTAVYYCARRGFFLYYGSSYYYFDVWGAGTTVTVSS VL: QIVLTQSPAIMSASLGEEITLTCSASSSVSYMHWYQQKSGTSPKLLIYSTSNLASGVPSRFSGSGSGTFYSLTISSVEAEDAADYYCHQWSSYPWTFGGGTKLEIKR |  |  |  |  |  |  | 17.5
13 | ANTI-HUMAN ENTPD2 MAB11 (antibody, human IgG1, kappa, V domains shown) VH: EVQLLESGGGLVQSGGSLRLSCAASGFTFSSYAMSWVRQAPGKGLEWVSVISGSGGSTYYADSVKGRFTISRDNSKNTLYLQMNSLRAEDTAVYYCARGDDYGDDYYYYGMDVWGQGTTVTVSS VL: not shown |  |  | 55 | 1.5 |  |  | 
14 | ANTI-HUMAN ENTPD2 MAB8 (antibody, human IgG1, lambda, V domains shown) VH: QVQLQQSGPGLVKPSQTLSLTCAISGDSVSSSSAAWNWIRQSPSRGLEWLGRIYYRSKWYNDYAVSVKSRITINPDTSKNQFSLQLNSVTPEDTAVYYCARGSYVTSSYEGFDYWGQGTLVTVSS VL: SYELTQPLSVSVALGQTARITCSGDNLPEKYAYWYQQKPGQAPVLVIYDDNKRPSGIPERFSGSNSGNTATLTISRAQAGDEADYYCQSYGKWGWTWVFGGGTKLTVLG | 96 | 0.9 | 97 | 0.1 | 95 | 0.2 | 

— US20240336701A1 (Novartis, published 2024)
